Test results reported in patent US5928933A, “Process for the enzymatic resolution of N-(alkoxycarbonyl)-4-ketoproline alkyl esters or N-(alkoxycarbonyl)-4-hydroxyproline alkyl esters using Candida antarctica lipase B” (priority 1998, dated 1999).

B1: protease, type XXIV: commercial enzyme preparation, source bacterial (subtil. Carlsberg) (protein, UniProt P00780 106-379, looked up)
Subtilisin Carlsberg: AQTVPYGIPLIKADKVQAQGFKGANVKVAVLDTGIQASHPDLNVVGGASFVAGEAYNTDGNGHGTHVAGTVAALDNTTGVLGVAPSVSLYAVKVLNSSGSGSYSGIVSGIEWATTNGMDVINMSLGGASGSTAMKQAVDNAYAKGVVVVAAAGNSGSSGNTNTIGYPAKYDSVIAVGAVDSNSNRASFSSVGAELEVMAPGAGVYSTYPTNTYATLNGTSMASPHVAGAAALILSKHPNLSASQVRNRLSSTATYLGSSFYYGKGLINVEAAAQ
B2: protease (Chirazyme P1): commercial enzyme preparation, source Bacillus licheniformis (protein, UniProt P00780 106-379, looked up)
Subtilisin Carlsberg: B1 Subtilisin Carlsberg
B3: protease, type X: commercial enzyme preparation, source B. thermoproteoliticus rokko (protein, UniProt P00800 233-548, looked up)
Thermolysin: ITGTSTVGVGRGVLGDQKNINTTYSTYYYLQDNTRGNGIFTYDAKYRTTLPGSLWADADNQFFASYDAPAVDAHYYAGVTYDYYKNVHNRLSYDGNNAAIRSSVHYSQGYNNAFWNGSQMVYGDGDGQTFIPLSGGIDVVAHELTHAVTDYTAGLIYQNESGAINEAISDIFGTLVEFYANKNPDWEIGEDVYTPGISGDSLRSMSDPAKYGDPDHYSKRYTGTQDNGGVHINSGIINKAAYLISQGGTHYGVSVVGIGRDKLGKIFYRALTQYLTPTSNFSQLRAAAVQSATDLYGSTSQEVASVKQAFDAVGVK
B4: protease, trypsin porcine pancreas: commercial trypsin, source porcine pancreas (protein, UniProt P00761 9-231, looked up)
Trypsin: IVGGYTCAANSIPYQVSLNSGSHFCGGSLINSQWVVSAAHCYKSRIQVRLGEHNIDVLEGNEQFINAAKIITHPNFNGNTLDNDIMLIKLSSPATLNSRVATVSLPRSCAAAGTECLISGWGNTKSSGSSYPSLLQCLKAPVLSDSSCKSSYPGQITGNMICVGFLEGGKDSCQGDSGGPVVCNGQLQGIVSWGYGCAQKNKPGVYTKVCNYVNWIQQTIAAN
B5: protease, type XXVII: commercial enzyme preparation, (Nagarase) (protein, UniProt P00782 108-382, looked up)
Subtilisin BPN': AQSVPYGVSQIKAPALHSQGYTGSNVKVAVIDSGIDSSHPDLKVAGGASMVPSETNPFQDNNSHGTHVAGTVAALNNSIGVLGVAPSASLYAVKVLGADGSGQYSWIINGIEWAIANNMDVINMSLGGPSGSAALKAAVDKAVASGVVVVAAAGNEGTSGSSSTVGYPGKYPSVIAVGAVDSSNQRASFSSVGPELDVMAPGVSIQSTLPGNKYGAYNGTSMASPHVAGAAALILSKHPNWTNTQVRSSLENTTTKLGDSFYYGKGLINVQAAAQ

Columns and labels:
Format in all cases: biochemical
[1] = Enzyme screens for resolution of diastereomeric mixture CHLP(MEMC)/THLP(MEMC) (Example 13); conditions: 0.050M each isomer, 5 h, 5.0 to 50 mg/mL enzyme, 25° C.; for conv. (percent conversion of the diastereomeric mixture): 0.100M potassium phosphate pH 7.0; for % de (diastereomeric excess of the cis-L-isomer): pH 7.0
Experimental: (§1) An aqueous solution containing 0.050M N-(methoxycarbonyl)-trans-4-hydroxy-L-proline methyl ester and 0.050M N-(methoxycarbonyl)-cis-4-hydroxy-L-proline methyl ester in 0.100M potassium phosphate (pH 7.0) was mixed with 5.0 to 50 mg/mL of commercial enzyme preparations (listed in the table below) at 25° C. The reactions were analyzed after 5 h by removal of a 0.200 mL sample and mixing with an equivalent volume of 0.100M propionic acid (HPLC internal standard) in water. The resulting solution was filtered through a 10K molecular weight cut-off filter to remove the enzyme and the filtrate analyzed by high pressure liquid chromatography on a HPX-87H column (Bio-Rad, 30 cm×7.8 mm) to determine the percent conversion of the diastereomeric mixture, and the diastereomeric excess of the N-(methoxycarbonyl)-cis-4-hydroxy-L-proline methyl ester.

[2] = Enzyme screens for resolution of racemic N-(acetyl)-4-keto-D,L-proline methyl ester (Example 7, comparative); conditions: 0.100M racemate, 5 h, 5.0 to 30 mg/mL enzyme, 25° C.; for conv. (percent conversion of the racemate): 0.20M sodium succinate pH 6.0; for % ee (enantiomeric excess of the D-isomer): pH 6.0
Experimental: (§2) An aqueous solution (1.0 mL) containing 0.100M racemic N-(acetyl)-4-keto-D,L-proline methyl ester in 0.20M sodium succinate (pH 6.0) was mixed with 5.0 to 30 mg/mL of commercial enzyme preparations (listed in the table below) at 25° C. […] The dichloromethane extract was then analyzed by chiral gas chromatography on a Chiraldex G-TA column (Advanced Separation Technologies, Inc., 50 m×0.32 mm ID) to determine the percent conversion of the racemate, and the enantiomeric excess of the N-(acetyl)-4-keto-D-proline methyl ester.

[3] = Enzyme screens for resolution of diastereomeric mixture CHDP(MEMC)/THLP(MEMC) (Example 9); conditions: 0.050M each isomer, 5 h or 24 h, 5.0 to 50 mg/mL enzyme, 25° C.; for conv. (percent conversion of the diastereomeric mixture): 0.100M potassium phosphate pH 7.0; for % de (diastereomeric excess of the D-isomer, CHDP(MEMC)): pH 7.0
Experimental: as §1, with “aqueous solution (1.0 mL) containing 0.050M” for “aqueous solution containing 0.050M”, “and 0.050M N-(methoxycarbonyl)-cis-4-hydroxy-D-proline methyl ester” for “and 0.050M N-(methoxycarbonyl)-cis-4-hydroxy-L-proline methyl ester”, “after 5 h or 24 h by” for “after 5 h by”, “conversion of each isomer of the diastereomeric” for “conversion of the diastereomeric”, “of the N-(methoxycarbonyl)-cis-4-hydroxy-D-proline methyl ester.” for “of the N-(methoxycarbonyl)-cis-4-hydroxy-L-proline methyl ester.”

[4] = Enzyme screens for resolution of racemic N-(methoxycarbonyl)-4-keto-D,L-proline methyl ester (Example 1); conditions: 0.100M racemate, 5.0 to 50 mg/mL enzyme, 25° C., optimum; for conv. (percent conversion of the racemate): 0.20M sodium succinate pH 6.0, 5 h or 0.20M sodium acetate pH 5.0, 24 h; for % ee (enantiomeric excess of the D-isomer; L-isomer with porcine liver esterase): pH 6.0, 5 h or pH 5.0, 24 h
Experimental: An aqueous solution (1.0 mL) containing 0.100M racemic N-(methoxycarbonyl)-4-keto-D,L-proline methyl ester in either 0.20M sodium succinate (pH 6.0) or 0.20M sodium acetate (pH 5.0) was mixed with 5.0 to 50 mg/mL of commercial enzyme preparations (listed in the table below) at 25° C. […] The dichloromethane extract was then analyzed by chiral gas chromatography on a Chiraldex G-TA column (Advanced Separation Technologies, Inc., 50 m×0.32 mm ID) to determine the percent conversion of the racemate, and the enantiomeric excess of the N-(methoxycarbonyl)-4-keto-D-proline methyl ester.

[5] = Enzyme screens for resolution of racemic N-(methoxycarbonyl)-4,4-dimethoxy-D,L-proline methyl ester (Example 8, comparative); conditions: 0.100M racemate, 6 h or 17 h, 5.0 to 30 mg/mL enzyme, 25° C.; for conv. (percent conversion of the racemate): 0.25M potassium phosphate pH 7.0; for % ee (enantiomeric excess of the D-isomer): pH 7.0
Experimental: as §2, with “N-(methoxycarbonyl)-4,4-dimethoxy-D,L-proline” for “N-(acetyl)-4-keto-D,L-proline”, “0.25M potassium phosphate” for “0.20M sodium succinate”, “7.0)” for “6.0)”, “ethyl acetate” for “dichloromethane”, “N-(methoxycarbonyl)-4,4-dimethoxy-D-prolinemethyl” for “the N-(acetyl)-4-keto-D-proline methyl”

Molecule | conv. (percent conversion of the diastereomeric mixture) [1] | % de (diastereomeric excess of the cis-L-isomer) [1] | conv. (percent conversion of the racemate) [2] | % ee (enantiomeric excess of the D-isomer) [2] | conv. (percent conversion of the diastereomeric mixture) [3] | % de (diastereomeric excess of the D-isomer, CHDP(MEMC)) [3] | conv. (percent conversion of the racemate) [4] | % ee (enantiomeric excess of the D-isomer; L-isomer with porcine liver esterase) [4] | conv. (percent conversion of the racemate) [5] | % ee (enantiomeric excess of the D-isomer) [5]
protease, chymopapain: commercial enzyme preparation, source papaya latex | 0% | 0% | 0% | 0% | 0% | 0% | 0% | 0% |  | 
protease, pepsin: commercial enzyme preparation, source porcine stomach mucosa | 0% | 0% | 0% | 0% | 0% | 0% | 0% | 0% |  | 
B1 | 6% | 5% |  |  | 16% | 16% | 17% | 18% | 42% | 22%
B2 | 25% | 31% | 43% | 37% | 28% | 26% | 54% | 65% | 44% | 22%
B3 | 0% | 0% | 0% | 0% | 0% | 0% | 0% | 0% |  | 
B4 | 0% | 0% | 0% | 0% | 0% | 0% | 0% | 0% |  | 
B5 | 17% | 16% |  |  | 2% | 4% | 27% | 21% | 44% | 30%
